Measured values: patent US20220348631A1
Values joined by “and” are separate entries in the source; they are usually repeats but may differ in a detail not shown here. Equal values may be shown once. Values belong to the substance of their own block, whether it stands above or below them.

Tests used:
Assay in all cases: cell-based or functional assay
[1] = biological target: carcinoembryonic antigen (CEA) on LoVo, LS174T or H508 tumor cells (UniProt P06731)
[2] = biological target: PD-L1 on LoVo / LoVo.OKT3.GFP cells (UniProt Q9NZQ7)
UniProt Q9NZQ7, sequence (Q9NZQ7 19-290 limits assumed): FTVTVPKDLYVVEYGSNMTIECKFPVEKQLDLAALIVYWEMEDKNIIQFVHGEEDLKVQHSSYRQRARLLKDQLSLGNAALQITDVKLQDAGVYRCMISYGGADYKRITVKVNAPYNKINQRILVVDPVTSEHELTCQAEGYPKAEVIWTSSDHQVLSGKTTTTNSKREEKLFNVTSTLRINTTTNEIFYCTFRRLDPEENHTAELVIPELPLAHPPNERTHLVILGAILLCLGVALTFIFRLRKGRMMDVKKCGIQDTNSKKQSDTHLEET

[3] = biological target: Human folate receptor alpha (FolR) on cells (human) (UniProt P15328)
UniProt P15328, sequence (P15328 25-234): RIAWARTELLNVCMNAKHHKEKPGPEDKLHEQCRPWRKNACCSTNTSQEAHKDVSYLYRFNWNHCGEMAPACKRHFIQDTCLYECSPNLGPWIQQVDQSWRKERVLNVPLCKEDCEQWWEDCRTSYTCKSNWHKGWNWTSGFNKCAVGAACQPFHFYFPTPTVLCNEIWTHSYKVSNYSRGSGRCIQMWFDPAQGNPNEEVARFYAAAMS

UniProt P06731, sequence (P06731 35-702 limits assumed): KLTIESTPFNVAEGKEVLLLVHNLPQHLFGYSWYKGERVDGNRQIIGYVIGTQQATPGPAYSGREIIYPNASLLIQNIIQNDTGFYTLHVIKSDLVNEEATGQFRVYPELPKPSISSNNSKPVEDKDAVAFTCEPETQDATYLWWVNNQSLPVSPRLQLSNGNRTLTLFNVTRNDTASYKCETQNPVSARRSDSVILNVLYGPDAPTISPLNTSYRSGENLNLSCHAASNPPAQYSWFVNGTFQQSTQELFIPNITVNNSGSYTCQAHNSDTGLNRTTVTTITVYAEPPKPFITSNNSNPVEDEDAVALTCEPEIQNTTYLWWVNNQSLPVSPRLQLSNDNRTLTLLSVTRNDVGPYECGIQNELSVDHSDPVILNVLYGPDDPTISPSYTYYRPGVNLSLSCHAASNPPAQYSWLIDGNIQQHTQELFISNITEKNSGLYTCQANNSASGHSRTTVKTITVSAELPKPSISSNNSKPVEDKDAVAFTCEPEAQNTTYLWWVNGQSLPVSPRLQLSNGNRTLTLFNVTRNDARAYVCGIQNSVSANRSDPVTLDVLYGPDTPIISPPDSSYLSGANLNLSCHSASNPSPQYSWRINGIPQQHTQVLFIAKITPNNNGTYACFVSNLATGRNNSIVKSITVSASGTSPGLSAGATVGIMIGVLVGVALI

IL-2 secretion (ELISA), coculture with LoVo-OKT3 [1]: 4.6 ng/mL
Substance: MFE23 CD28(IEV) truncated CoStAR (receptor)

IL-2 secretion (ELISA), 24 h coculture with LoVo-OKT3 [2]: < 1000 pg/mL
Substance: CTP189 PD1_PD1_sCD28TM_CD28_CD40 (monomeric) (receptor)

IFNγ (ELISA) after 24 h with LoVo-OKT3 [1]: > 30 ng/mL | IFNγ (ELISA), coculture with LoVo-OKT3 [1]: 1000 pg/mL | IL-2 (ELISA) after 24 h with LoVo-OKT3 [1]: 4000 pg/mL | IL-2 (ELISA), coculture with LoVo-OKT3 [1]: 4000 pg/mL | IL-2 secretion (ELISA), 24 h coculture with LoVo-OKT3 [1]: 4000 pg/mL | IL-2 secretion (ELISA), coculture with LoVo-OKT3 [1]: 29 ng/mL | T-cell expansion over 18 days with LoVo-OKT3 and IL-2 [1]: > 60 fold | fold expansion after two rounds of stimulation with LoVo-OKT3 [1]: 10 fold | fold expansion on serial stimulation with LoVo-OKT3 [1]: 12 fold | fold expansion with LoVo-OKT3, after restimulation (day 14-15) [1]: > 10 fold | fold expansion with LoVo-OKT3, first time point (day 6-8) [1]: 4 fold
Substance: CTP194 OSM_MFE23_spCD28_CD28_CD40 (receptor)

IL-2 secretion (ELISA), 24 h coculture with LoVo-OKT3 [2]: < 1000 pg/mL
Substance: CTP188 PD1_PD1_sCD28TM_CD28_CD40 (dimeric) (receptor)

IFNγ (ELISA) after 24 h with LoVo-OKT3 [1]: > 30 ng/mL
Substance: CTP197 OSM_MFE23_spCD28_CD28_CD40 (PQEINF-AQAINF) (receptor)

enhancement of Bcl-XL induction in the presence of OvCAR-OKT3 [3]: 20% | enhancement of IL-2 induction in the presence of OvCAR-OKT3 [3]: 20% | enhancement of TNFα production in the presence of OvCAR-OKT3 [3]: 20 to 30% | mean fold expansion of T cells, 21 days with OvCAR-OKT3 [3]: 187 fold
Substance: MOV19.CD28 CoStAR (from UniProt P10747 19-220) (receptor)

IFNγ (ELISA) after 24 h with LoVo-OKT3 [1]: 10 ng/mL
Substance: CTP196 OSM_MFE23_spCD28_CD28_CD40 (PVQET-AVAEA) (receptor)

IFNγ (ELISA), coculture with LoVo-OKT3 [1]: 1000 pg/mL | IL-2 (ELISA), coculture with LoVo-OKT3 [1]: 2500 pg/mL
Substance: CTP201 OSM_MFE23_spCD28_CD28 (PYAPP-AYAA)_CD40 (receptor)

IFNγ (ELISA) after 24 h with LoVo-OKT3 [1]: > 30 ng/mL | IL-2 (ELISA) after 24 h with LoVo-OKT3 [1]: 4000 pg/mL
Substance: CTP198 OSM_MFE23_spCD28_CD28_CD40 (P227A) (receptor)

CD137 expression [3]: 50% | CD137 expression in CoStAR+ TIL, coculture with FolR high expressing tumor digest [3]: 50% | CD137 expression in CoStAR+ TIL, coculture with FolR low expressing tumor digest [3]: > 20% | IL-2 production [3]: 5% | TNFα production [3]: 15% | enhancement of Bcl-XL induction in the presence of OvCAR-OKT3 [3]: 35% | enhancement of IL-2 induction in the presence of OvCAR-OKT3 [3]: 30 to 50% | enhancement of TNFα production in the presence of OvCAR-OKT3 [3]: 25% and 50% | mean fold expansion of T cells, 21 days with OvCAR-OKT3 [3]: 1300 fold
Substance: MOV19.CD28.CD40 CoStAR (OSM_MOV19_spCD28_CD28_CD40) (receptor)

IL-2 (ELISA), coculture with LoVo-OKT3 [1]: 2500 pg/mL
Substance: CTP202 OSM_MFE23_spCD28_CD28 (YMNM-FMNM)_CD40 (receptor)

IFNγ (ELISA) after 24 h with LoVo-OKT3 [1]: > 30 ng/mL
Substance: CTP200 OSM_MFE23_spCD28_CD28_CD40_CD40_CD40 (receptor)

IFNγ (ELISA) after 24 h with LoVo-OKT3 [1]: > 30 ng/mL | IL-2 (ELISA) after 24 h with LoVo-OKT3 [1]: 4000 pg/mL
Substance: CTP195 OSM_MFE23_spCD28_CD28_CD40 (SVQE-AVQA) (receptor)
